Data taken from patent US20210139579A1.
Residue numbers refer to the chain shown, from its start. Where two headings read alike, the source gives them in different places.

B1: XBR1-402-G5-PNU (antibody, V domains shown)
VH: QEQQKESGGGLFKPTDTLTLTCTASGFDISSYYMSWVRQAPGNGLEWIGAIGISGNAYYASWAKSRSTITRNTNLNTVTLKMTSLTAADTATYFCARDHPTYGMDLWGPGTLVTVSS
VL: SYELTQLPSVSVSLGQTARITCEGNNIGSKAVHWYQQKPGLAPGLLIYDDDERPSGVPDRFSGSNSGDTATLTISGAQAGDEADYYCQVWDSSAYVFGGGTQLTVTG
modifications: EDA-PNU-159682 derivative on the C-terminal glycine (G5-PNU joined by sortase)
B2: R12-G5-PNU (antibody, V domains shown)
VH: QEQLVESGGRLVTPGGSLTLSCKASGFDFSAYYMSWVRQAPGKGLEWIATIYPSSGKTYYATWVNGRFTISSDNAQNTVDLQMNSLTAADRATYFCARDSYADDGALFNIWGPGTLVTISS
VL: ELVLTQSPSVSAALGSPAKITCTLSSAHKTDTIDWYQQLQGEAPRYLMQVQSDGSYTKRPGVPDRFSGSSSGADRYLIIPSVQADDEADYYCGADYIGGYVFGGGTQLTVTG
modifications: EDA-PNU-159682 derivative on the C-terminal glycine (G5-PNU joined by sortase)
B3: Top43-G5-PNU (adc204) (antibody, V domains shown)
VH: QSLEESGGRLVTPGTPLTLTCTVSGFSLSSYWMSWVRQAPGKGLEWIGAIYGSGNTYYASWAKGRFTISKTSTTVDLKITSPTTEDTATYFCARDVHSTATDLWGPGTLVTISS
VL: SYELTQLPSVSVSLGQTARITCGGNNIGSKAVNWYQQKPGLAPGLLIYNDDERPSGVPDRFSGSNSGDTATLTISGAQAGDEADYYCQLWDSSAGAYVFGGGTQLTVTG
modifications: EDA-PNU-159682 derivative on the C-terminal glycine (G5-PNU joined by sortase)
B4: ERR1-301-G5-PNU (adc200) (antibody, V domains shown)
VH: QEQLEESGGGLVTPGGSLTLTCTASGFTISTYHMSWVRQAPGKGLEWIGSIYAGSGSTYYASWVNGRFTISSNTTQNTVSLQMNSLTVADTATYFCARDHPSYGMDLWGPGTLVTVSS
VL: B3 VL with N26S, N49D, G63A, G80E, G95V
modifications: EDA-PNU-159682 derivative on the C-terminal glycine (G5-PNU joined by sortase)

Experiments:
[1] = biological target: human ROR1 (hROR1) on the cell surface (human) (UniProt Q01973); assay: cell-based or functional assay
[2] = biological target: human ROR1 (hROR1) on the cell surface (human) (UniProt Q01973); assay: cell-based or functional assay; remark: listed apart in the source

Chain of human ROR1 (hROR1) on the cell surface (human) (Q01973 30-937): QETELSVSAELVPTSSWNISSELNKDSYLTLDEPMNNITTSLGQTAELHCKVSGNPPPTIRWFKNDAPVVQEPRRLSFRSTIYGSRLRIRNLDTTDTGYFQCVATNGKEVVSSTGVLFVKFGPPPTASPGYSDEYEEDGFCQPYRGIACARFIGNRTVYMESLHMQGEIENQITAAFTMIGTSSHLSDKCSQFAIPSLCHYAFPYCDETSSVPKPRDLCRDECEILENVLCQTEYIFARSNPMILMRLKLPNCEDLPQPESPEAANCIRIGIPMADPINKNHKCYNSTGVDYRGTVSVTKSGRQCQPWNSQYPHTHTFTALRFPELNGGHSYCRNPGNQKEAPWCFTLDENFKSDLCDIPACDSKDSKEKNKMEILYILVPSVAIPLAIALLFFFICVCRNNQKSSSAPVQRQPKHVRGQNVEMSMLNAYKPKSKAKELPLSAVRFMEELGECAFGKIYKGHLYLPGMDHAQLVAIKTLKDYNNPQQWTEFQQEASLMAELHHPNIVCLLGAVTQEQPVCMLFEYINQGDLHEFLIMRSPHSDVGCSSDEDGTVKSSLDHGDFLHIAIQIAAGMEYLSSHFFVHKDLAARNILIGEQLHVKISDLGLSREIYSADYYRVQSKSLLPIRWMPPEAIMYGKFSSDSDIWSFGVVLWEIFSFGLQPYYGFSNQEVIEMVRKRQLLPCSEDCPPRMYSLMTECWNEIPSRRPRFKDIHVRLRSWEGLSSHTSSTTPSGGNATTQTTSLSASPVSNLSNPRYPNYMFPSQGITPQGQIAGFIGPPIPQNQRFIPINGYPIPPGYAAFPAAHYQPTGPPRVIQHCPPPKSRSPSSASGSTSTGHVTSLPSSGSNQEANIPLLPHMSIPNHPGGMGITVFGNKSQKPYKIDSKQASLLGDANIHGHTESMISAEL

| Binder | IC50, in vitro cell killing of A549 cells [1] [µg/mL] | IC50, in vitro cell killing of HS 578T cells [1] [µg/mL] | IC50, in vitro cell killing of HT-29 cells [1] [µg/mL] | IC50, in vitro cell killing of hROR1-overexpressing EMT-6 cells [1] [nM] | IC50, in vitro cell killing of 697 cells [2] [µg/mL] | IC50, in vitro cell killing of 697 cells [1] | IC50, in vitro cell killing of MDA-MB-468 cells [1] [µg/mL] |
| --- | --- | --- | --- | --- | --- | --- | --- |
| B1 | 177 | 1.4 | 23.3 | 1.7 | – | – | – |
| B2 | – | 3.5 | 10.3 | – | 0.873 | 100 nM | 3.96 |
| B3 | 109 | 0.707 | 23.1 | – | – | 0.314 µg/mL | 0.463 |
| B4 | – | – | – | – | – | 0.592 µg/mL | – |
